molecular target: Cerulean-ICDI1.4; test: FRET two-hybrid assay; settings: parent: est. 26 µM^-1; read off a plot

In order of falling Ka:
1. Venus-IQ-A1.3 HDI[1644]AAA  55 µM⁻¹
2. Venus-IQ-A1.3 TTI[1632]AAA  54 µM⁻¹
3. Venus-IQ-A1.3 GPE[1647]AAA  44 µM⁻¹
4. Venus-IQ-A1.3 LVG[1623]AAA  27 µM⁻¹
5. Venus-IQ-A1.3 KYP[1626]AAA  25 µM⁻¹
6. Venus-IQ-A1.3 AKN[1629]AAA  22 µM⁻¹
7. Venus-IQ-A1.3 AIS[1653]AAA  9.5 µM⁻¹
8. Venus-IQ-A1.3 ALQ[1635]AAA  8.5 µM⁻¹
9. Venus-IQ-A1.3 IRR[1650]AAA  8 µM⁻¹
10. Venus-IQ-A1.3 AGL[1638]AAA  7.5 µM⁻¹
11. Venus-IQ-A1.3 RTL[1641]AAA  7 µM⁻¹

same assay, conditions: parent: est. 21; read off a plot

In order of rising Ka:
1. Venus-PreIQ3-IQ-A1.3 F[+4]A  3.2 µM⁻¹
2. Venus-PreIQ3-IQ-A1.3 Y[-5]A  4.7 µM⁻¹
3. Venus-PreIQ3-IQ-A1.3 L[-1]A  7 µM⁻¹
4. Venus-PreIQ3-IQ-A1.3 A[-4]T  9 µM⁻¹
5. Venus-PreIQ3-IQ-A1.3 V[-9]A  11 µM⁻¹
6. Venus-PreIQ3-IQ-A1.3 F[-6]A  12 µM⁻¹
7. Venus-PreIQ3-IQ-A1.3 K[-7]A  14 µM⁻¹
8. Venus-PreIQ3-IQ-A1.3 D[-14]A  14 µM⁻¹
9. Venus-PreIQ3-IQ-A1.3 K[+6]A  15 µM⁻¹
10. Venus-PreIQ3-IQ-A1.3 F[+7]A  15 µM⁻¹
11. Venus-PreIQ3-IQ-A1.3 V[-11]A  15 µM⁻¹
12. Venus-PreIQ3-IQ-A1.3 K[+8]A  15 µM⁻¹
13. Venus-PreIQ3-IQ-A1.3 K[+9]A  15 µM⁻¹
14. Venus-PreIQ3-IQ-A1.3 R[+10]A  15 µM⁻¹
15. Venus-PreIQ3-IQ-A1.3 K[+11]A  15 µM⁻¹
16. Venus-PreIQ3-IQ-A1.3 R[+5]A  16 µM⁻¹
17. Venus-PreIQ3-IQ-A1.3 P[-17]A  16 µM⁻¹
18. Venus-PreIQ3-IQ-A1.3 D[+2]A  18 µM⁻¹
19. Venus-PreIQ3-IQ-A1.3 A[-16]T  18 µM⁻¹
20. Venus-PreIQ3-IQ-A1.3 G[-15]A  22 µM⁻¹
21. Venus-PreIQ3-IQ-A1.3 P[-18]A  22 µM⁻¹
22. Venus-PreIQ3-IQ-A1.3 I[0]A  24 µM⁻¹
23. Venus-PreIQ3-IQ-A1.3 Q[+1]A  24 µM⁻¹
24. Venus-PreIQ3-IQ-A1.3 Y[+3]A  25 µM⁻¹
25. Venus-PreIQ3-IQ-A1.3 D[-13]A  28 µM⁻¹
26. Venus-PreIQ3-IQ-A1.3 G[-8]A  32 µM⁻¹
27. Venus-PreIQ3-IQ-A1.3 T[-3]A  34 µM⁻¹
28. Venus-PreIQ3-IQ-A1.3 T[-10]A  37 µM⁻¹
29. Venus-PreIQ3-IQ-A1.3 E[-12]A  37 µM⁻¹

molecular target: Venus-PreIQ3-IQ-A1.3; test: FRET two-hybrid assay; settings: parent: est. 22; read off a plot

In order of rising Ka:
1. Cerulean-ICDI1.4 GLF[1898]AAA  3.5 µM⁻¹
2. Cerulean-ICDI1.4 EGL[1895]AAA  6 µM⁻¹
3. Cerulean-ICDI1.4 KRG[1880]AAA  6.5 µM⁻¹
4. Cerulean-ICDI1.4 DNA[1926]AAA  7 µM⁻¹
5. Cerulean-ICDI1.4 ACR[1917]AAA  14 µM⁻¹
6. Cerulean-ICDI1.4 EMA[1959]AAA  26 µM⁻¹
7. Cerulean-ICDI1.4 ASD[1929]AAA  30 µM⁻¹
8. Cerulean-ICDI1.4 SAD[1883]AAA  30 µM⁻¹
9. Cerulean-ICDI1.4 SDP[1874]AAA  31 µM⁻¹
10. Cerulean-ICDI1.4 EAV[1889]AAA  37 µM⁻¹
11. Cerulean-ICDI1.4 ILS[1947]AAA  37 µM⁻¹
12. Cerulean-ICDI1.4 ALA[1908]AAA  38 µM⁻¹
13. Cerulean-ICDI1.4 EES[1944]AAA  38 µM⁻¹
14. Cerulean-ICDI1.4 EED[1953]AAA  40 µM⁻¹
15. Cerulean-ICDI1.4 HVP[1868]AAA  42 µM⁻¹
16. Cerulean-ICDI1.4 SSL[1938]AAA  46 µM⁻¹
17. Cerulean-ICDI1.4 GTH[1871]AAA  48 µM⁻¹
18. Cerulean-ICDI1.4 LGD[1956]AAA  50 µM⁻¹
19. Cerulean-ICDI1.4 RFD[1950]AAA  51 µM⁻¹
20. Cerulean-ICDI1.4 CVH[1962]AAA  51 µM⁻¹
21. Cerulean-ICDI1.4 QGT[1935]AAA  56 µM⁻¹
22. Cerulean-ICDI1.4 SHG[1877]AAA  61 µM⁻¹

— article PMC8054141
